Values of other authors, collected in patent US20090317412A1, “Induction of an immune response against streptococcus pneumoniae polyaccharides” (priority 2004, published 2009).

Molecular target: T1, murine I-A^b molecules (Mus musculus, UniProt P14434+P14483)
T1 sequence (P14434 24-256): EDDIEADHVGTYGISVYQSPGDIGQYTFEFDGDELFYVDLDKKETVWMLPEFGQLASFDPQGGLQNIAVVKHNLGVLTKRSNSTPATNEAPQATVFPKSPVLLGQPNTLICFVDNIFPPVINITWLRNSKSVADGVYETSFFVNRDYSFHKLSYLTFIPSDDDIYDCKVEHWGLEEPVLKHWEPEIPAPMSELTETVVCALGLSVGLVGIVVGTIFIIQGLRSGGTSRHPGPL
T1 sequence (P14483 28-265): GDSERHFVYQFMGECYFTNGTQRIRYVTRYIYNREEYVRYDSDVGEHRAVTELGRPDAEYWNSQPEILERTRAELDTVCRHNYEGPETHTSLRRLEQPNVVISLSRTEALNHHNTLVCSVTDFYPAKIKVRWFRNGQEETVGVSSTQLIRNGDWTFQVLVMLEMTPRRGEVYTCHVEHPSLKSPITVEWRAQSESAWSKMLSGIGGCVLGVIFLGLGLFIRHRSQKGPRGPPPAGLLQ

AKXVAAWTLKAAA [pan DR binding peptide]
binding to murine I-A^b molecules: binds
